Measured values from the supplement of paper PMC11246515.
± gives the standard deviation of the averaged measurements.

Test: total protein half-life in vivo (active degradation + dilution); higher = more stable protein
[1] = E. coli NCM3722 delta-clpP delta-lon delta-hslV, growth: N-lim chemostat, doubling time 6 h
[2] = E. coli NCM3722 delta-clpP, growth: N-lim chemostat, doubling time 6 h
[3] = E. coli NCM3722 delta-hslV, growth: N-lim chemostat, doubling time 6 h
[4] = E. coli NCM3722 delta-lon, growth: N-lim chemostat, doubling time 6 h
[5] = E. coli NCM3722 delta-smpB, growth: N-lim chemostat, doubling time 6 h
[6] = wild type E. coli NCM3722, growth: C-lim chemostat, doubling time 3 h
[7] = wild type E. coli NCM3722, growth: C-lim chemostat, doubling time 6 h
[8] = wild type E. coli NCM3722, growth: C-lim chemostat, doubling time 12 h
[9] = wild type E. coli NCM3722, growth: N-lim chemostat, doubling time 6 h
[10] = wild type E. coli NCM3722, growth: N-lim chemostat, doubling time 12 h
[11] = wild type E. coli NCM3722, growth: P-lim chemostat, doubling time 6 h
[12] = wild type E. coli NCM3722, growth: P-lim chemostat, doubling time 12 h

Sequence	total protein half-life in vivo [1] [h]	total protein half-life in vivo [2] [h]	total protein half-life in vivo [3] [h]	total protein half-life in vivo [4] [h]	total protein half-life in vivo [5] [h]	total protein half-life in vivo [6] [h]	total protein half-life in vivo [7] [h]	total protein half-life in vivo [8] [h]	total protein half-life in vivo [9] [h]	total protein half-life in vivo [10] [h]	total protein half-life in vivo [11] [h]	total protein half-life in vivo [12] [h]
MLNAWHLPVPPFVKQSKDQLLITLWLTGEDPPQRIMLRTEHDNEEMSVPMHKQRSQPQPGVTAWRAAIDLSSGQPRRRYSFKLLWHDRQRWFTPQGFSRMPPARLEQFAVDVPDIGPQWAADQIFYQIFPDRFARSLPREAEQDHVYYHHAAGQEIILRDWDEPVTAQAGGSTFYGGDLDGISEKLPYLKKLGVTALYLNPVFKAPSVHKYDTEDYRHVDPQFGGDGALLRLRHNTQQLGMRLVLDGVFNHSGDSHAWFDRHNRGTGGACHNPESPWRDWYSFSDDGTALDWLGYASLPKLDYQSESLVNEIYRGEDSIVRHWLKAPWNMDGWRLDVVHMLGEAGGARNNMQHVAGITEAAKETQPEAYIVGEHFGDARQWLQADVEDAAMNYRGFTFPLWGFLANTDISYDPQQIDAQTCMAWMDNYRAGLSHQQQLRMFNQLDSHDTARFKTLLGRDIARLPLAVVWLFTWPGVPCIYYGDEVGLDGKNDPFCRKPFPWQVEKQDTALFALYQRMIALRKKSQALRHGGCQVLYAEDNVVVFVRVLNQQRVLVAINRGEACEVVLPASPFLNAVQWQCKEGHGQLTDGILALPAISATVWMN	6.31 ± 0.59	6.88 ± 1.2	2.49 ± 0.11	2.59 ± 0.38	2.28 ± 0.031	2.48 ± 0.074	3.86 ± 0.075	6.87 ± 1.4	2.18	3.45 ± 0.98	5 ± 0.27	7.49 ± 0.34
MESLASLYKNHIATLQERTRDALARFKLDALLIHSGELFNVFLDDHPYPFKVNPQFKAWVPVTQVPNCWLLVDGVNKPKLWFYLPVDYWHNVEPLPTSFWTEDVEVIALPKADGIGSLLPAARGNIGYIGPVPERALQLGIEASNINPKGVIDYLHYYRSFKTEYELACMREAQKMAVNGHRAAEEAFRSGMSEFDINIAYLTATGHRDTDVPYSNIVALNEHAAVLHYTKLDHQAPEEMRSFLLDAGAEYNGYAADLTRTWSAKSDNDYAQLVKDVNDEQLALIATMKAGVSYVDYHIQFHQRIAKLLRKHQIITDMSEEAMVENDLTGPFMPHGIGHPLGLQVHDVAGFMQDDSGTHLAAPAKYPYLRCTRILQPGMVLTIEPGIYFIESLLAPWREGQFSKHFNWQKIEALKPFGGIRIEDNVVIHENNVENMTRDLKLA	5.4 ± 0.69	4.93 ± 0.32	5.12 ± 0.4	5.92 ± 0.92	4.33 ± 0.059	3.21 ± 0.37	5.72 ± 0.084	10.2 ± 1.3	4.77 ± 0.23	8.64 ± 0.18	6.13 ± 0.18	11.9 ± 0.27
MQTEQQRAVTRLCIQCGLFLLQHGAESALVDELSSRLGRALGMDSVESSISSNAIVLTTIKDGQCLTSTRKNHDRGINMHVVTEVQHIVILAEHHLLDYKGVEKRFSQIQPLRYPRWLVALMVGLSCACFCKLNNGGWDGAVITFFASTTAMYIRQLLAQRHLHPQINFCLTAFAATTISGLLLQLPTFSNTPTIAMAASVLLLVPGFPLINAVADMFKGHINTGLARWAIASLLTLATCVGVVMALTIWGLRGWV [P0ADD5]	–	–	–	–	–	–	–	15.1	–	–	6.86	–
MMTTILTIHVPSTPGRAWNMLVALQAGNIVARYAKLHLYDAFAIQESRRVDAGNEIAPLLEVEGMKVGLMTCYDLRFPELALAQALQGAEILVLPAAWVRGPLKEHHWSTLLAARALDTTCYMVAAGECGNKNIGQSRIIDPFGVTIAAASEMPALIMAEVTPERVRQVRAQLPVLNNRRFAPPQLL [P0DP64]	7.53	–	–	–	–	–	–	–	–	–	–	–
MTMTRLKISKTLLAVMLTSAVATGSAYAENNAQTTNESAGQKVDSSMNKVGNFMDDSAITAKVKAALVDHDNIKSTDISVKTDQKVVTLSGFVESQAQAEEAVKVAKGVEGVTSVSDKLHVRDAKEGSVKGYAGDTATTSEIKAKLLADDIVPSRHVKVETTDGVVQLSGTVDSQAQSDRAESIAKAVDGVKSVKNDLKTK [P0AFH8]	3.62 ± 0.17	4.7 ± 0.28	5.73 ± 0.24	5.7 ± 0.33	5.25 ± 0.3	2.96 ± 0.067	5.39 ± 0.2	8.26 ± 2.2	5.5 ± 0.26	11.3 ± 0.17	4.9 ± 0.15	9.28 ± 0.88
MLKFIQNNREITALLAVVLLFVLPGFLDRQYLSVQTLTMVYSSAQILILLAMGATLVMLTRNIDVSVGSITGMCAVLLGMLLNAGYSLPVACVATLLLGLLAGFFNGVLVAWLKIPAIVATLGTLGLYRGIMLLWTGGKWIEGLPAELKQLSAPLLLGVSAIGWLTIILVAFMAWLLAKTAFGRSFYATGDNLQGARQLGVRTEAIRIVAFSLNGCMAALAGIVFASQIGFIPNQTGTGLEMKAIAACVLGGISLLGGSGAIIGAVLGAWFLTQIDSVLVLLRIPAWWNDFIAGLVLLAVLVFDGRLRCALERNLRRQKYARFMTPPPSVKPASSGKKREAA	–	–	–	–	–	3.42	5.06 ± 1.6	7.51 ± 1.3	–	–	–	–
MRVLIKNGTVVNADGQAKQDLLIESGIVRQLGNNISPQLPYEEIDATGCYVFPGGVDVHTHFNIDVGIARSCDDFFTGTRAAACGGTTTIIDHMGFGPNGCRLRHQLEVYRGYAAHKAVIDYSFHGVIQHINHAILDEIPMIVEEGLSSFKLYLTYQYKLNDDEVLQALRRLHESGALTTVHPENDAAIASKRAEFIAAGLTAPRYHALSRPLECEAEAIARMINLAQIAGNAPLYIVHLSNGLGLDYLRLARANHQPVWVETCPQYLLLDERSYDTEDGMKFILSPPLRNVREQDKLWCGISDGAIDVVATDHCTFSMAQRLQISKGDFSRCPNGLPGVENRMQLLFSSGVMTGRITPERFVELTSAMPARLFGLWPQKGLLAPGSDGDVVIIDPRQSQQIQHRHLHDNADYSPWEGFTCQGAIVRTLSRGETIFCDGTFTGKAGRGRFLRRKPFVPPVL	–	–	–	–	–	> 4	–	–	–	–	–	12.1
MIFSVDKVRADFPVLSREVNGLPLAYLDSAASAQKPSQVIDAEAEFYRHGYAAVHRGIHTLSAQATEKMENVRKRASLFINARSAEELVFVRGTTEGINLVANSWGNSNVRAGDNIIISQMEHHANIVPWQMLCARVGAELRVIPLNPDGTLQLETLPTLFDEKTRLLAITHVSNVLGTENPLAEMITLAHQHGAKVLVDGAQAVMHHPVDVQALDCDFYVFSGHKLYGPTGIGILYVKEALLQEMPPWEGGGSMIATVSLSEGTTWTKAPWRFEAGTPNTGGIIGLGAALEYVSALGLNNIAEYEQNLMHYALSQLESVPDLTLYGPQNRLGVIAFNLGKHHAYDVGSFLDNYGIAVRTGHHCAMPLMAYYNVPAMCRASLAMYNTHEEVDRLVTGLQRIHRLLG	3.84 ± 0.34	3.43 ± 0.26	3.39 ± 0.22	3.44 ± 0.05	3.41 ± 0.12	3.19 ± 0.48	–	8.7 ± 0.18	3.38 ± 0.26	5.21 ± 0.034	6.38 ± 0.54	11.3 ± 1.4
MFKEIFTRLIRHLPSRLVHRDPLPGAQQTVNTVVPPSLSAHCLKMAVMPEEELWKTFDTHPEGLNQAEVESAREQHGENKLPAQQPSPWWVHLWVCYRNPFNILLTILGAISYATEDLFAAGVIALMVAISTLLNFIQEARSTKAADALKAMVSNTATVLRVINDKGENGWLEIPIDQLVPGDIIKLAAGDMIPADLRILQARDLFVAQASLTGESLPVEKAATTRQPEHSNPLECDTLCFMGTTVVSGTAQAMVIATGANTWFGQLAGRVSEQESEPNAFQQGISRVSMLLIRFMLVMAPVVLLINGYTKGDWWEAALFALSVAVGLTPEMLPMIVTSTLARGAVKLSKQKVIVKHLDAIQNFGAMDILCTDKTGTLTQDKIVLENHTDISGKTSERVLHSAWLNSHYQTGLKNLLDTAVLEGTDEESARSLASRWQKIDEIPFDFERRRMSVVVAENTEHHQLVCKGALQEILNVCSQVRHNGEIVPLDDIMLRKIKRVTDTLNRQGLRVVAVATKYLPAREGDYQRADESDLILEGYIAFLDPPKETTAPALKALKASGITVKILTGDSELVAAKVCHEVGLDAGEVVIGSDIETLSDDELANLAQRTTLFARLTPMHKERIVTLLKREGHVVGFMGDGINDAPALRAADIGISVDGAVDIAREAADIILLEKSLMVLEEGVIEGRRTFANMLKYIKMTASSNFGNVFSVLVASAFLPFLPMLPLHLLIQNLLYDVSQVAIPFDNVDDEQIQKPQRWNPADLGRFMIFFGPISSIFDILTFCLMWWVFHANTPETQTLFQSGWFVVGLLSQTLIVHMIRTRRVPFIQSCASWPLMIMTVIVMIVGIALPFSPLASYLQLQALPLSYFPWLVAILAGYMTLTQLVKGFYSRRYGWQ [P0ABB8]	6.31	6.68 ± 0.68	6.44 ± 0.53	–	5.89 ± 0.47	–	6.91 ± 0.4	14.8 ± 0.69	6.72 ± 0.55	14.4 ± 1.3	6.71 ± 0.3	–
MSNTDASGEKRVTGTSERREQIIQRLRQQGSVQVNDLSALYGVSTVTIRNDLAFLEKQGIAVRAYGGALICDSTTPSVEPSVEDKSALNTAMKRSVAKAAVELIQPGHRVILDSGTTTFEIARLMRKHTDVIAMTNGMNVANALLEAEGVELLMTGGHLRRQSQSFYGDQAEQSLQNYHFDMLFLGVDAIDLERGVSTHNEDEARLNRRMCEVAERIIVVTDSSKFNRSSLHKIIDTQRIDMIIVDEGIPADSLEGLRKAGVEVILVGE [P0ACK2]	–	6.24 ± 1	4.83 ± 0.21	5.24 ± 0.27	5.04 ± 0.56	3.02 ± 0.15	5.31 ± 0.35	9.94 ± 0.52	4.89 ± 0.46	9.31 ± 0.91	5.05 ± 0.16	9.52 ± 1.1
MAYSKIRQPKLSDVIEQQLEFLILEGTLRPGEKLPPERELAKQFDVSRPSLREAIQRLEAKGLLLRRQGGGTFVQSSLWQSFSDPLVELLSDHPESQYDLLETRHALEGIAAYYAALRSTDEDKERIRELHHAIELAQQSGDLDAESNAVLQYQIAVTEAAHNVVLLHLLRCMEPMLAQNVRQNFELLYSRREMLPLVSSHRTRIFEAIMAGKPEEAREASHRHLAFIEEILLDRSREESRRERSLRRLEQRKN [P0ACL9]	5.54 ± 0.1	5.3 ± 0.09	4.94 ± 0.19	4.33	4.54 ± 0.35	2.94 ± 0.1	6.361 ± 0.042	9.49 ± 0.8	4.53 ± 0.67	9.28	5.59 ± 0.71	11.2 ± 1.1
MESGHRFDAQTLHSFIQAVFRQMGSEEQEAKLVADHLIAANLAGHDSHGIGMIPSYVRSWSQGHLQINHHAKTVKEAGAAVTLDGDRAFGQVAAHEAMALGIEKAHQHGIAAVALHNSHHIGRIGYWAEQCAAAGFVSIHFVSVVGIPMVAPFHGRDSRFGTNPFCVVFPRKDNFPLLLDYATSAIAFGKTRVAWHKGVPVPPGCLIDVNGVPTTNPAVMQESPLGSLLTFAEHKGYALAAMCEILGGALSGGKTTHQETLQTSPDAILNCMTTIIINPELFGAPDCNAQTEAFAEWVKASPHDDDKPILLPGEWEVNTRRERQKQGIPLDAGSWQAICDAARQIGMPEETLQAFCQQLAS	4.97 ± 0.25	3.99 ± 0.17	4.28 ± 0.11	–	4.214 ± 0.024	3.14 ± 0.059	5.02 ± 0.63	8.45 ± 0.26	4.46 ± 0.42	7.26 ± 1.5	5.58 ± 0.14	10.3 ± 1.2
MNNSAFTFQTLHPDTIMDALFEHGIRVDSGLTPLNSYENRVYQFQDEDRRRFVVKFYRPERWTADQILEEHQFALQLVNDEVPVAAPVAFNGQTLLNHQGFYFAVFPSVGGRQFEADNIDQMEAVGRYLGRMHQTGRKQLFIHRPTIGLNEYLIEPRKLFEDATLIPSGLKAAFLKATDELIAAVTAHWREDFTVLRLHGDCHAGNILWRDGPMFVDLDDARNGPAVQDLWMLLNGDKAEQRMQLETIIEAYEEFSEFDTAEIGLIEPLRAMRLVYYLAWLMRRWADPAFPKNFPWLTGEDYWLRQTATFIEQAKVLQEPPLQLTPMY [P0C0K3]	3.88 ± 0.5	5.41 ± 1.8	4.37 ± 0.62	4.43 ± 0.29	4.22 ± 0.26	2.99 ± 0.046	5.38 ± 0.61	10.3 ± 1.3	4.23 ± 0.21	6.67 ± 0.66	6.02 ± 0.38	10.3 ± 0.64
